Results from patent US20160193292A1 (CURATORS OF THE UNIVERSITY OF MISSOURI, published 2016).
One block for each binder: values may come before it.

B2: Plenty of SH3 domains (POSH) (other)
chain: MDESALLDLLECPVCLERLDASAKVLPCQHTFCKRCLLGIVGSRNELRCPECRTLVGSGVDELPSNILLVRLLDGIKQRPWKPGPGGGGGTTCTNTLRAQGSTVVNCGSKDLQSSQCGQQPRVQAWSPPVRGIPQLPCAKALYNYEGKEPGDLKFSKGDIIILRRQVDENWYHGEVSGVHGFFPTNFVQIIKPLPQPPPQCKALYDFEVKDKEADKDCLPFAKDDVLTVIRRVDENWAEGMLADKIGIFPISYVEFNSAAKQLIEWDKPPVPGVDTAECPSATAQSTSASKHPDTKKNTRKRHSFTSLTMANKSSQGSQNRHSMEISPPVLISSSNPTAAARISELSGLSCSAPSQVHISTTGLIVTPPPSSPVTTGPAFTFPSDVPYQAALGSMNPPLPPPPLLAATVLASTPSGATAAVAAAAAAAAAAGMGPRPVMGSSEQIAHLRPQTRPSVYVAIYPYTPRKEDELELRKGEMFLVFERCQDGWYKGTSMHTSKIGVFPGNYVAPVTRAVTNASQAKVSMSTAGQASRGVTMVSPSTAGGPTQKPQGNGVAGNPSVVPTAVVSAAHIQTSPQAKVLLHMSGQMTVNQARNAVRTVAAHSQERPTAAVTPIQVQNAACLGPASVGLPHHSLASQPLPPMAGPAAHGAAVSISRTNAPMACAAGASLASPNMTSAMLETEPSGRTVTILPGLPTSPESAASACGNSSAGKPDKDSKKEKKGLLKLLSGASTKRKPRVSPPASPTLDVELGAGEAPLQGAVGPELPLGGSHGRVGSCPTDGDGPVAAGTAALAQDAFHRKTSSLDSAVPIAPPPRQACSSLGPVMNEARPVVCERHRVVVSYPPQSEAELELKEGDIVFVHKKREDGWFKGTLQRNGKTGLFPGSFVENI
notes: Endogenous scaffold protein precipitated or detected in T-cell lysates (Co-IP, IP-FCM); also called Sh3Rf1
B4: JNK-interacting protein 1 (JIP-1) (other, UniProt Q9WVI9 1-707, looked up)
chain: MAERESGLGGGAASPPAASPFLGLHIASPPNFRLTHDISLEEFEDEDLSEITDECGISLQCKDTLSLRPPRAGLLSAGSSGSAGSRLQAEMLQMDLIDAAGDTPGAEDDEEEEDDELAAQRPGVGPPKAESNQDPAPRSQGQGPGTGSGDTYRPKRPTTLNLFPQVPRSQDTLNNNSLGKKHSWQDRVSRSSSPLKTGEQTPPHEHICLSDELPPQGSPVPTQDRGTSTDSPCRRSAATQMAPPSGPPATAPGGRGHSHRDRIHYQADVRLEATEEIYLTPVQRPPDPAEPTSTFMPPTESRMSVSSDPDPAAYSVTAGRPHPSISEEDEGFDCLSSPERAEPPGGGWRGSLGEPPPPPRASLSSDTSALSYDSVKYTLVVDEHAQLELVSLRPCFGDYSDESDSATVYDNCASASSPYESAIGEEYEEAPQPRPPTCLSEDSTPDEPDVHFSKKFLNVFMSGRSRSSSAESFGLFSCVINGEEHEQTHRAIFRFVPRHEDELELEVDDPLLVELQAEDYWYEAYNMRTGARGVFPAYYAIEVTKEPEHMAALAKNSDWIDQFRVKFLGSVQVPYHKGNDVLCAAMQKIATTRRLTVHFNPPSSCVLEISVRGVKIGVKADDALEAKGNKCSHFFQLKNISFCGYHPKNNKYFGFITKHPADHRFACHVFVSEDSTKALAESVGRAFQQFYKQFVEYTCPTEDIYLE
notes: Endogenous protein in T-cell lysates

Key:
[1] = target: B2; assay: IP-FCM with α-POSH beads in the presence of Tat-POSH
Rac1 = Rac1 (UniProt P63001 1-189); assay: Co-IP with antibodies against Rac1 and immunoblot, OT-I blasts re-stimulated with OVA-Tet/α-CD28
Description: The beads were incubated with the lysates washed and probed with antibodies against the Co-IP target. The levels of associated molecules (secondary analyte/Co-IP target) were quantified relative to IP target (primary analyte/loading control). Specificity was determined by comparison to both isotype and negative control antibodies (FIG. 5 and FIG. 6). […] Shaded histogram represents the staining of an isotype control. […] These two negative controls were used to establish significance of shift above background.
Associated proteins were assessed by immunoblot.

[2] = target: B2; assay: IP-FCM with α-POSH beads, lysates of stimulated OT-I T cells
Description: Associated proteins were assessed by immunoblot. […] Data shown are representative of 6 independent experiments. […] Red histogram represents primary analyte and is shown to serve as a bead loading control.

[3] = target: B4; assay: IP-FCM with α-JIP-1 beads in the presence of Tat-POSH

Binder: B2
binding result (Rac1): binds

Binder: B4
binding result [2]: binds

More lines, now with the values ahead:

binding result [1]: binds
B1: MLK-3 (enzyme, UniProt Q80XI6 1-850, looked up)
chain: MEPLKNLFLKSPLGSWNGSGSGGGGGTGGVRPEGSPKATAAYANPVWTALFDYEPNGQDELALRKGDRVEVLSRDAAISGDEGWWAGQVGGQVGIFPSNYVSRGGGPPPCEVASFQELRLEEVIGIGGFGKVYRGSWRGELVAVKAARQDPDEDISVTAESVRQEARLFAMLAHPNIIALKAVCLEEPNLCLVMEYAAGGPLSRALAGRRVPPHVLVNWAVQIARGMHYLHCEALVPVIHRDLKSNNILLLQPIEGDDMEHKTLKITDFGLAREWHKTTQMSAAGTYAWMAPEVIKASTFSKGSDVWSFGVLLWELLTGEVPYRGIDCLAVAYGVAVNKLTLPIPSTCPEPFAQLMADCWAQDPHRRPDFASILQQLEALEAQVLREMPRDSFHSMQEGWKREIQGLFDELRAKEKELLSREEELTRAAREQRSQAEQLRRREHLLAQWELEVFERELTLLLQQVDRERPHVRRRRGTFKRSKLRARDGGERISMPLDFKHRITVQASPGLDRRRNVFEVGAGDSPTFPRFRAIQLEPTESGQTWGRQSPRRLEDSSNGERRACWAWGPSSPKPGEAQNGRRRSRMDEATWYLDSDDSSPLGSPSTPPALNGNPPRPSPEPEEPRRAGPTERGNSSGTPKLIQRALLRGTALLASLGLGRDLQPPGGLSRERGESPTAPPPAQMPSPCPPELPSTPLIRLSQTTPDAHSSPTPGPLLLDLGVPSGQPSAKSPRREETRGRTVSPPPGISRSAPGTPGTPRSPPLGLISRPRPSPLRSRIDPWSFVSAGPRPSPLPSPQPAPRRAPWTLFPDSDPFWDSPPANPFRGGSQDCRTQTKDMGAQAPWAPEAGP
notes: Endogenous protein in T-cell lysates; also called MAP3K protein MLK-3

binding result [2]: binds
binding result [3]: binds
B3: JNK1 (enzyme, UniProt Q91Y86 1-384, looked up)
chain: MSRSKRDNNFYSVEIGDSTFTVLKRYQNLKPIGSGAQGIVCAAYDAILERNVAIKKLSRPFQNQTHAKRAYRELVLMKCVNHKNIIGLLNVFTPQKSLEEFQDVYIVMELMDANLCQVIQMELDHERMSYLLYQMLCGIKHLHSAGIIHRDLKPSNIVVKSDCTLKILDFGLARTAGTSFMMTPYVVTRYYRAPEVILGMGYKENVDLWSVGCIMGEMVCHKILFPGRDYIDQWNKVIEQLGTPCPEFMKKLQPTVRTYVENRPKYAGYSFEKLFPDVLFPADSEHNKLKASQARDLLSKMLVIDASKRISVDEALQHPYINVWYDPSEAEAPPPKIPDKQLDEREHTIEEWKELIYKEVMDLEERTKNGVIRGQPSPLAQVQQ
notes: Endogenous protein in T-cell lysates; also called 46KD JNK1
